Measured values from the supplement of paper PMC12042874.
± gives the uncertainty stated by the source.

Test: amyloid nucleation score (Sup35N fusion, yeast selection) (log enrichment); library NNK1; higher = more nucleation; inactive = no reads after selection
Method in brief: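 After 24 hours of induction with 100 μM copper sulfate, psi-negative yeast expressing peptides of 20 random codons fused to Sup35N were grown for 7 days at 30°C on medium lacking adenine and uracil. Input and output plasmid inserts were sequenced with Illumina, and sequences with under 100 input reads were discarded. Scores for nucleation are the DiMSum log enrichment of output over input reads, centred on the mode score of non-aggregating sequences.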

Substance	amyloid nucleation score
LSDRVFSVTTQGPCDSIFLS	-0.792 ± 0.61
NRKAPFNQA	-1.09 ± 1.4
THAVREFWDLGGVNEENYGW	inactive
YIMSGRFTNY	2.13 ± 0.28
VYLVMSVCGTRNGYKHSSQL	0.265 ± 0.25
NRLRNGPNDRVVRATAPKGF	0.259 ± 0.4
HFHNSCLYIGRVHIGHTLGV	7.826 ± 0.052
NTHTAWNRIGRTWRQNWTWG	0.061 ± 0.47
NFPKHFSSALRF	-0.081 ± 0.35
LYGLLAGIMSCHWLSWIACK	-0.96 ± 2.7
KPEFVNWIC	0.083 ± 0.32
VGRLGVEG	-0.305 ± 0.25
FRDSTET	0.495 ± 1.4
SYCYKDGWELVLEYLFVNCT	1.21 ± 0.45
CPASVMAKRYCQLKMGWWGP	0.202 ± 0.37
TCLWSYSNAFENPR	1.85 ± 0.31
RSMGKIMIRENQRSLVMLSH	0.522 ± 0.57
ADARVQGLSRLWGSGFNRLP	0.53 ± 0.51
VIVWVWSCVM	6.247 ± 0.055
DSVLNGSFAACLDWDALPGQ	0.272 ± 0.54
NCECSFWKREGSWGTLVSGM	0.201 ± 0.51
AEHYPGIVVCLSLCDS	-1.77 ± 2.4
NPFYKT	0.268 ± 0.37
SHYNNNHSAGWLLQLFTMAC	0.05 ± 0.88
CSYLSLRRKCVDTQFLYDMM	-0.199 ± 0.47
VDLDSVR	-0.236 ± 0.48

Substance	amyloid nucleation score
QPLLTQQK	0.086 ± 0.28
HLSALLANSNLNKM	-0.359 ± 0.52
MWCLGLDIFRIRVYRCAGGG	-0.348 ± 0.28
KFDLYRTWCSSLRFGRYWRV	1.23 ± 0.59
YVVLASVMLITYVRA	0.786 ± 0.38
MRGMADYC	-0.251 ± 0.88
YRSSVL	-0.514 ± 0.29
NECDVALIRWWG	0.419 ± 0.45
MLGCVGSCTR	-1.08 ± 1.1
TSDGVMMVR	0.564 ± 0.34
YWKSIRPILIEC	inactive
PTFFHNCVDTFRSS	-0.026 ± 0.47
TYSEVRGYLLSRFAEVIDS	inactive
FFTLHAFQ	inactive
AFMDKLMSPGEVIEVAL	1.29 ± 0.84
SLLCYRRGSWGEYIMFNGRL	-0.366 ± 0.84
MSHWTMGREWITHLFSGHWG	0.945 ± 1.1
QFRGLDLCLRIRRLVAYTGI	0.285 ± 0.64
YVSYRIVLGRMPGMKHSRKR	3.6 ± 0.088
NLCRIRIARLQHGGRSTMSF	1 ± 0.73
LKYMYHYVSMKVFVLGISMR	0.005 ± 1.7
MNTSVAWMVR	-0.149 ± 0.32
FVVVHRSASGPEIQFLKGGR	-0.684 ± 0.4
LMNCVAYAIVEVTCVSCMES	4.68 ± 0.082
MMWLCAVFPGIRFYGYPGLN	-1.88 ± 2.7
CLETACRILGFCN	-0.488 ± 0.21

Substance	amyloid nucleation score
TWVMFDVWGRVDYER	0.169 ± 0.4
KEYNNPRLKLTMRRFAAKS	0.539 ± 0.69
RFAVCTNFANIFRLQEDQIR	0.481 ± 0.33
HDREDWGDQSWYFILAWIFK	-0.745 ± 0.44
VNWFTR	0.582 ± 0.56
SVVFLQRFLDR	-0.564 ± 1.2
YVVNGYSICGFDAEVIVLQL	1.19 ± 0.18
LYAWGVRYSVVMLFSYRGVH	-0.026 ± 1.2
NPLMTTLATSDMWRNQFISG	1.38 ± 0.41
CKSRR	0.034 ± 0.69
ELKRGVHLRPE	4.36 ± 0.14
VVLLQLQCHEPFYSPKPQQA	-0.048 ± 0.51
CLHFFTQTTVWCKHVSSQKV	0.21 ± 0.48
IWEFSWLYMLKVMRSGFSYN	-0.282 ± 0.44
NICMQTRVIRAS	0.811 ± 0.5
RILSDDDVARQNGNDDNLYP	3.22 ± 0.092
CCDIEITLSHGVIGICSRKT	0.844 ± 0.26
RRCCNVERGSAKVALTV	-0.153 ± 1.3
MPKRSKHFVNWVVNA	-0.265 ± 0.29
LVVAVW	0.269 ± 0.35
GCLFICSMRELYKSASSTMR	0.141 ± 0.48
RQLKVARTGLWLGFTFCIQE	0.24 ± 0.89
TFVQF	-0.066 ± 0.51
SVLSSLVSEISGVVCLVLGH	-0.214 ± 0.57
KPYIFYFINVYCEA	5.917 ± 0.056
VWVHD	0.257 ± 0.26

Substance	amyloid nucleation score
KRSTVRHYYRARCFITVAMV	-0.365 ± 0.45
NNLMFNYSGHMVSVKAHSSG	0.776 ± 0.43
GNVLDFCPWLVGLLCHGGGV	0.149 ± 0.35
RCHESARKVTSGMCCSGWC	4.12 ± 0.088
NVDFTSYMLDMM	0.042 ± 0.41
VGLINHYSSSNMLG	0.161 ± 0.62
QFKFINVDEAHT	0.297 ± 1.2
TTEYRMLGYSVEHLQDCSDR	-0.527 ± 0.54
SIYYKARSEWSMASAIDGYV	0.85 ± 0.72
FKRRLGCLKPRNY	-0.333 ± 0.52
SCRSGRRRPLPTGGPILATN	-0.015 ± 0.64
DHITKHFIGV	inactive
QWQIDMIPRCLGDMNLIVLQ	inactive
ARRRF	-0.345 ± 1.7
WFSWLVGEILCWCGGWVRSK	0.404 ± 0.51
CLILG	-1.31 ± 0.52
TSVDVFS	0.656 ± 0.62
VNDQAGRLGD	0.904 ± 0.61
CRRRPSSDELSVLWDAEGRY	0.009 ± 0.66
GLKMFKMCLCNMALDIF	7.428 ± 0.073
FGRSVLDRVKVMHVRVVVSV	-0.372 ± 0.63
INSQSTATN	0.593 ± 0.31
PLHCSVGRIRSGLMCLKLTC	-0.17 ± 1.1
KSAANTINIRPENETVPRFQ	0.556 ± 0.59
RWVPYHFV	2.77 ± 0.13
VLLADVCLSVERGKVTDPGS	1.25 ± 0.58

Substance	amyloid nucleation score
GMAHDWSRQWVRVSDAVLLR	-0.004 ± 0.6
LRAWMSVASDNGLLMFCRNH	-0.324 ± 0.46
LMIRILMVAQNSVLTVFW	-0.324 ± 0.4
ETALVVLTRVTEGCGRGQKT	0.668 ± 0.77
RGCMAQDSNLYKHVSARTGD	-0.179 ± 1.6
FWRMTFQRHEKLSHQ	-0.28 ± 0.38
MAKSGNEI	0.062 ± 0.79
DKRNVASYDSMCQLLAILFN	0.512 ± 0.34
LWWFEYRL	-0.016 ± 0.32
VWISWMSRISITRLCVWGSV	0.379 ± 0.41
GVCRLLGKVAMLV	-2.1 ± 2.4
SCHRPVPSRASSEKILGIAC	0.157 ± 1.4
MCVLYMGGSFRF	1.58 ± 0.44
SRYYLSRPVLRYG	0.546 ± 0.42
RDFYCFWLG	4.05 ± 0.08
FRSGYRLACSAMSIAFCIYE	0.341 ± 0.48
SLNAMFIFLLAYKRGVYEYM	1.25 ± 0.24
IWNSVARFRYSSMGFVVSAV	-0.702 ± 1.7
SRVQYLILDIMVTRYGASTS	-0.262 ± 0.53
PLFLVVTQMS	5.25 ± 0.073
WRMYMYVNNPSNKHWVRRAS	-0.488 ± 0.51
HSLSFTNVVDTSLPLVLANF	-2.15 ± 2.4
SYKGWVGLVLRVETDGNWSR	2.28 ± 0.13
VKSRYLFRCSLLFEHDTGIC	0.01 ± 0.23
LRSVSGCIKFAYGDSCMSLK	inactive
YAPWGGKNSRYAGSVM	0.701 ± 0.33

Substance	amyloid nucleation score
EYGNGSIKPVGRHWLEGYLH	-0.701 ± 1
CRLISCDRFRSTRSKG	0.016 ± 0.52
LGGFSMRVNEVVLPGVRFGD	-0.037 ± 1.7
LWGRFYIYHSLFHRSHHVKL	-0.284 ± 1
FTLMGNSCHRGLV	-0.66 ± 0.85
GLVSQPFWCSYKCGGHNHKG	0.314 ± 1.4
LSHLLMRCGCIRLFVISMRE	0.448 ± 0.49
VRSPDSLVVWDLVRH	-0.367 ± 0.49
YFWLNTNTLCSYWRMRHWVS	0.524 ± 0.61
AGRRKSRSAVQREP	0.528 ± 0.88
IEIKTIFVSFLFCECKFCGY	5.63 ± 0.057
MWEALW	0.601 ± 0.54
KCFSGYWVLARLRVKFLRVG	-0.275 ± 0.53
MRIPVRLVV	0.027 ± 0.54
NGWIMRR	-0.094 ± 1.5
FCFMWGYMVRVIV	inactive
TRVKQMEVVSWTRHHWPRCF	-0.623 ± 0.47
HGLVNG	0.437 ± 0.52
NNQHDGYSIFILDRQPLRAM	0.488 ± 0.59
YCGSTWASVWGPIICPRYRA	0.208 ± 0.33
KSMHEVWWLLQSEGERDL	0.712 ± 0.49
VRSFVHTWLDTTWA	-0.025 ± 0.36
TYWMHCEWFSV	-1.4 ± 2.7
FDLGHCIDSRRPGLCVMVLV	0.035 ± 0.34
QLRGWQYSKATREVDSREDR	0.646 ± 0.79
CKNNGGKDMSVMI	1.14 ± 0.49

Substance	amyloid nucleation score
CNYCIWPARFVVIHDAMCVS	-0.98 ± 1.1
LTILCWWLYEIRR	0.556 ± 0.55
YSGPGAQFIAMLNKLWCTAH	1.23 ± 0.24
WHTCYHSWSASIVLAPVSTT	-0.009 ± 0.39
ISVVLWYDRALARCPSPDAP	0.764 ± 0.49
RGVLFVAINW	2.47 ± 0.31
RDRCT	0.49 ± 0.36
TQPLEIK	-0.165 ± 1.5
DGCSRFRREGAEVYQRMGIG	1.04 ± 0.85
ASEVCKY	0.375 ± 0.79
RFETRTL	0.93 ± 0.31
VKFKGTTLCYIFDMDFMHGI	0.948 ± 0.14
MCGQLV	-0.447 ± 0.74
FDRMNCALGVPLWDALKDGS	3.4 ± 0.14
VIYFLRYHLFNSLVSPHNRR	inactive
CVMFLGFVYVFSSLYPT	-0.981 ± 0.63
GVCFLAR	0.707 ± 0.74
YGLSSGFLYADLEDVPALLW	0.681 ± 0.45
YIIWFPFSKLVLMRYHRSWG	-0.005 ± 0.22
DVEIFTISWVKEVVYRDTWA	1.59 ± 0.7
